Reference: patent US20030219457A1

How the values were obtained:
[1] = molecular target: Crotalus durissus terrificus venom; assay: ELISA, wells coated with 5 µg/ml C.d.t. venom; dilution 1:125
[2] = molecular target: Crotalus durissus terrificus venom; assay: ELISA, C.d.t. venom-coated wells; dilution 1:5
[3] = molecular target: Crotalus durissus terrificus venom; assay: ELISA, wells coated with 5 µg/ml C.d.t. venom; undiluted
[4] = molecular target: Crotalus durissus terrificus venom; assay: ELISA, C.d.t. venom-coated wells; dilution 1:312,500
[5] = molecular target: Crotalus durissus terrificus venom; assay: ELISA, C.d.t. venom-coated wells; dilution 1:3125
[6] = molecular target: Crotalus durissus terrificus venom; assay: ELISA, wells coated with 5 µg/ml C.d.t. venom; dilution 1:5
[7] = molecular target: Crotalus durissus terrificus venom; assay: ELISA, wells coated with 5 µg/ml C.d.t. venom; dilution 1:625
[8] = molecular target: Crotalus durissus terrificus venom; assay: ELISA, C.d.t. venom-coated wells; dilution 1:25
[9] = molecular target: Crotalus durissus terrificus venom; assay: ELISA, C.d.t. venom-coated wells; dilution 1:62,500
[10] = molecular target: Crotalus durissus terrificus venom; assay: ELISA, C.d.t. venom-coated wells; dilution 1:625
[11] = molecular target: Crotalus durissus terrificus venom; assay: ELISA, wells coated with 5 µg/ml C.d.t. venom; dilution 1:25
[12] = molecular target: Crotalus durissus terrificus venom; assay: ELISA, C.d.t. venom-coated wells; dilution 1:125
[13] = molecular target: Crotalus durissus terrificus venom; assay: ELISA, wells coated with 5 µg/ml C.d.t. venom; dilution 1:3125

preimmune IgY (antibody)
absorbance (ELISA as in Example 4) [1]: 0.003 OD | absorbance (ELISA as in Example 4) [2]: < 0 OD | absorbance (ELISA as in Example 4) [3]: 0.003 OD | absorbance (412 nm filter) [4]: 0.01 OD | absorbance (ELISA as in Example 4) [5]: < 0 OD | absorbance (ELISA as in Example 4) [6]: < 0 OD | absorbance (ELISA as in Example 4) [7]: 0 OD | absorbance (ELISA as in Example 4) [8]: 0.016 OD | absorbance (412 nm filter) [9]: 0.001 OD | absorbance (ELISA as in Example 4) [10]: < 0 OD | absorbance (ELISA as in Example 4) [11]: 0 OD | absorbance (ELISA as in Example 4) [12]: < 0 OD | absorbance (ELISA as in Example 4) [13]: 0.002 OD
